Publication PMC10440475 (Heliyon, 2023)
Several values for one entry are separate records, joined by “and”; a condition that tells them apart may be missing. Equal values may be shown once.

Target: the molecule itself
Assay: PFO-PAGE

B1: eGFP-fused Shaker potassium channel protein (natural protein)
chain: MAAVAGLYGLGEDRQHRKKQQQQQQHQKEQLEQKEEQKKIAERKLQLREQQLQRNSLDGYGSLPKLSSQDEEGGAGHGFGGGPQHFEPIPHDHDFCERVVINVSGLRFETQLRTLNQFPDTLLGDPARRLRYFDPLRNEYFFDRSRPSFDAILYYYQSGGRLRRPVNVPLDVFSEEIKFYELGDQAINKFREDEGFIKEEERPLPDNEKQRKVWLLFEYPESSQAARVVAIISVFVILLSIVIFCLETLPEFKHYKVFNTTTNGTKIEEDEVPDITDPFFLIETLCIIWFTFELTVRFLACPNKLNFCRDVMNVIDIIAIIPYFITLATVVAEEEDTLNLPKAPVSPQDKSSNQAMSLAILRVIRLVRVFRIFKLSRHSKGLQILGRTLKASMRELGLLIFFLFIGVVLFSSAVYFAEAGSENSFFKSIPDAFWWAVVTMTTVGYGDMTPVGVWGKIVGSLCAIAGVLTIALPVPVIVSNFNYFYHRETDQEEMQSQNFNHVTSCPYLPGTLGQHMKKSSLSESSSDMMDLDDGVESTPGLTETHPGRSAVAPFLGAQQQQQQPVASSLSMSIDKQLQHPLQQLTQTQLYQQQQQQQQQQQNGFKQQQQQTQQQLQQQQSHTINASAAAATSGSGSSGLTMRHNNALAVSIETDV
Q: For B1, which “stoichiometry N” value is on record?
A: 2 and 4
